Measured values taken from patent US20250296984A1, “THERAPEUTIC AND DIAGNOSTIC AGENTS AND USES THEREOF” (priority 2022, published 2025).

B1: 13-5G6-1D3 rAb: recombinant antibody product of US28-13-5G6-1D3 produced in HEK293-F cells (antibody)
heavy: EVKLVESGGGLVQPGGSLRLACATSGFTFTDYYMSWVRQPPGKALEWLGFIRSKANGYTTEYSASVKGRFTISRDNSQSILYLQMNTLRSEDSATYYCARDERRTAWLAYWGQGTLVTVSAAKTTPPSVYPLAPGSAAQTNSMVTLGCLVKGYFPEPVTVTWNSGSLSSGVHTFPAVLQSDLYTLSSSVTVPSSTWPSETVTCNVAHPASSTKVDKKIVPRDCGCKPCICTVPEVSSVFIFPPKPKDVLTITLTPKVTCVVVDISKDDPEVQFSWFVDDVEVHTAQTQPREEQFNSTFRSVSELPIMHQDWLNGKEFKCRVNSAAFPAPIEKTISKTKGRPKAPQVYTIPPPKEQMAKDKVSLTCMITDFFPEDITVEWQWNGQPAENYKNTQPIMDTDGSYFIYSKLNVQKSNWEAGNTFTCSVLHEGLHNHHTEKSLSHSPGK
light: DVLMTQTPLSLPVSLGDQASISCRSSQSIVHSNGNTYLDWYLQKPGQSPKLLIYKVSNRFSGVPDRFSGSGSGTDFTLKISRVEAEDLGVYYCFQGSHVPTWTFGGGTKLEIKRADAAPTVSIFPPSSEQLTSGGASVVCFLNNFYPKDINVKWKIDGSERQNGVLNSWTDQDSKDSTYSMSSTLTLTKDEYERHNSYTCEATHKTSTSPIVKSFNRNEC
B2: 13-5G6-1D3: mouse monoclonal IgG1 kappa antibody against US28 ECD3; VH SEQ ID NO: 12, VL SEQ ID NO: 18 (antibody, V domains shown)
VH: EVKLVESGGGLVQPGGSLRLACATSGFTFTDYYMSWVRQPPGKALEWLGFIRSKANGYTTEYSASVKGRFTISRDNSQSILYLQMNTLRSEDSATYYCARDERRTAWLAYWGQGTLVTVSA
VL: DVLMTQTPLSLPVSLGDQASISCRSSQSIVHSNGNTYLDWYLQKPGQSPKLLIYKVSNRFSGVPDRFSGSGSGTDFTLKISRVEAEDLGVYYCFQGSHVPTWTFGGGTKLEIK
modifications: Mature form of VH sequence of 1D3, without the leader sequence; Mature form of VL sequence of 1D3, without the leader sequence

How the values were obtained:
[1] = system: HCMV infected human lung tissue; assay: Immunohistochemistry (IHC) on HCMV infected human lung tissue and controls; details: HCMV positive control slide, FIG. 12
Description: Cytomegalovirus (CMV) control slides containing CMV positive lung tissue and CMV negative myometrium (product number #3240A) were obtained from Newcomer Supply Inc., Middleton, WI 53562-2579, USA. Tissue micro-arrays (TMAs) were obtained from US Biomax Inc., Derwood, MD 20855, USA, and included tumor tissues #BR1008b, #BS17016c, #BCN721b and normal tissues #FDA662a and heart tissues #HEN241a.
The paraffin sections were sequentially immersed into a. 100% xylene three times (5 min each); b. 100% ethanol twice (2 min each); c. 95% ethanol twice (2 min each). The slides were rinsed twice in water for 5 min to remove ethanol. […], the slides were immersed in 3% H2O2 for 5 minutes and washed thereafter twice (2×) with distilled water. The slides were then immersed in the working citrate buffer (pH 6.0) and covered with a lid. The buffer was heated in the microwave until it had boiled, and then kept in the steamer for 15 min.
The sections were cooled at room temperature for 30 min and washed with PBS. 5% BSA blocking solution was then added to the HIER treated samples and they were incubated at 37° C. for 30 min. […] Digitized pictures were taken by Olympus VS120 scanner and analyzed by using OlyVia 3.2 software (Olympus Corporation, 20101 Tokyo, Japan) by senior Pathologist.

[2] = system: HCMV infected lung tissue; assay: Immunohistochemistry (IHC) on human lung tissue; details: normal lung tissue with HCMV DNA positive macrophages
Source text: FIG. 12. […] binding in 1:400 dilution (w/v) to HCMV-infected human tissues were studied by using immunohistochemistry analysis (IHC). […] The arrows (in the non-colour version of this figure) mark the US28-13-5G6-1D3 rAb cytoplasmic staining on typical HCMV infected alveolar cells with the characteristic cytomegalo effect in the HCMV positive control slide. […] C. The same macrophages show positive HCMV DNA in the same lung biopsy, whereas there are no HCMV DNA signals in normal alveolar cells, which is coherent with the US28 staining in the same sample. […] E. The IE staining is negative for the alveolar HCMV positive macrophages in normal lung tissue. […] Colour versions of FIG. 12 are also provided alongside the non-colour versions.
FIG. 25. The binding of the N-terminal antibodies to HCMV infected lung tissue and HCMV negative myometrium were studied by IHC. […] C. […] E. Mouse lung tissue with staining IgG was used as negative control antibody. […] As with the US28-13-5G6-1D3 rAb, the ECD1-binding molecules stained typical HCMV infected cells with the characteristic cytomegalo effect, showing strong cytoplasmic or membranous staining in these cells, as the US28 protein is known to be located in cytoplasm and cell membrane, and stained positively for some tissue macrophages, which are known to be carriers of latent or reactivated HCMV.

[3] = system: human primary adrenal cortical, kidney epithelial, cardiac microvascular endothelial, liver epithelial and vein smooth muscle cells; assay: Flow cytometry off-target surface binding to human primary cells; details: all five cell types, PE-labelled antibody
Description: FIG. 19. A. Flowcytometry analysis with the 28-13-5G6-1D3-PE antibody were conducted on various human primary cells to exclude general off-target binding to the surface of these cell types. The following cell lines were studied: human primary adrenal cortical cells, human primary kidney epithelial cells, human primary cardiac microvascular endothelial cells, human primary liver epithelial cells and human primary vein smooth muscle cells. […] B. Original human primary cardiac cells were not available, and human cardiac tissue samples were therefore studied for staining of 13-5G6-1D3 by immunohistochemistry. […] If there were HCMV infections present in the human heart, they were always of productive infection type. […] The positive 13-5G6-1D3 and HCMV ISH results are marked with arrows in the figure. A colour version of FIG. 19 is also provided.

Molecule	IHC staining of HCMV infected cells in lung tissue [1]	IHC staining of normal lung tissue [2]	surface binding to human primary cells [3] [%]
B1	strong cytoplasmic staining		
B2		positive US28 staining for macrophages, but negative staining for alveolar cells	< 1
